Patent US20240182897

System: T1, pegylated peptide-linked C12-miR (P.5-L-C12-miR)
T1 sequence: KGDGG

Substance: lysosomal enzyme Cathepsin D (Cat. No. C8696, Sigma-Aldrich)
- enzyme cleavage in vitro, size reduction on 15% acrylamide/8 M urea gel: the pegylated peptide-linked C12-miR (P.5-L-C12-miR) was cleaved by lysosomal cathepsin D and resulted in a smaller fragment
